% Release of calcein from HUVEC, α-PR3 mAbs added, negative control (0.25 mg/mL α1 antichymotrypsin by the text) and Mean fluorescence, HUVEC assay, α-PR3 mAbs added, negative control data for one substance are collected here from US20160228520A1.

The target of this assay is PR-3 receptor (proteinase 3) on TNF-primed human peripheral blood neutrophils (human) (UniProt P24158). Put plainly: cell-based or functional assay.
UniProt P24158, sequence (P24158 28-248): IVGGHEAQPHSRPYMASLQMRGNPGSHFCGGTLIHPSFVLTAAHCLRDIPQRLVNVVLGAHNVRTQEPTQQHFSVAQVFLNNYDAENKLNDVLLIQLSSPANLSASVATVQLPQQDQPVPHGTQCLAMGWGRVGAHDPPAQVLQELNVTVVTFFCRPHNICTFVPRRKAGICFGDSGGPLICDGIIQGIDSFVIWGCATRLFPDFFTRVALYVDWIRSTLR

For “α1-antichymotrypsin (Athens Research & Technology, Cat. No. 16-16-012400) (from UniProt P01011 24-423)”, the % Release of calcein from HUVEC, α-PR3 mAbs added, negative control (0.25 mg/mL α1 antichymotrypsin by the text) is 21.9% and the Mean fluorescence, HUVEC assay, α-PR3 mAbs added, negative control worked out at 4420.
